Experimental data as given in paper PMC9482650, “Quantitative fragmentomics allow affinity mapping of interactomes” (Nature Communications, 2022).

T1: LRRC7, Q96NW7
T1 sequence (Q96NW7 1440-1537, limits assumed, looked up): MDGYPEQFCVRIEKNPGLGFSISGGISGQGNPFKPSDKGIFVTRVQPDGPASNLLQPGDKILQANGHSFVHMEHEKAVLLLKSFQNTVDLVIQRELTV

T2: NHERF3_3, Q5T2W1
T2 sequence (Q5T2W1 238-333, limits assumed, looked up): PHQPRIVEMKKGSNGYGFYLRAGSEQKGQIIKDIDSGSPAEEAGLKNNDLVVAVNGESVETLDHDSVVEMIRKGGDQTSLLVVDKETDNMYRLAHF

T3: APBA3_1, O96018
T3 sequence (O96018 389-490, limits assumed, looked up): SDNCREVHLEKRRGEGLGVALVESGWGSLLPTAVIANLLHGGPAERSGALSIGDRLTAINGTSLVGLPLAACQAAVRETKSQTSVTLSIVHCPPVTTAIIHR

T4: NHERF3_4, Q5T2W1
T4 sequence (Q5T2W1 373-468, limits assumed, looked up): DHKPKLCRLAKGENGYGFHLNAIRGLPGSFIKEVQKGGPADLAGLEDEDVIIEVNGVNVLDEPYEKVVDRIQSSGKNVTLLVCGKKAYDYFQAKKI

T5: LNX2_3, Q8N448
T5 sequence (Q8N448 463-564, limits assumed, looked up): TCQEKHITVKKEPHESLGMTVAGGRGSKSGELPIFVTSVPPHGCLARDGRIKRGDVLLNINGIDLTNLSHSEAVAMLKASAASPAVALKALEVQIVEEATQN

T6: PDZD7_3, Q9H5P4
T6 sequence (Q9H5P4 857-944, limits assumed, looked up): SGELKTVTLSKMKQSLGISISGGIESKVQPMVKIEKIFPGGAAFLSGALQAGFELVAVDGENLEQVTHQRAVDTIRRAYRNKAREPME

T7: TJP3_3, O95049
T7 sequence (O95049 375-456, limits assumed, looked up): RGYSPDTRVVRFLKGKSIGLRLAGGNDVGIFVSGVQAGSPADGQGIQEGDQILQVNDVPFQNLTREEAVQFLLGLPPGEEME

T8: APBA1_2, Q02410
T8 sequence (Q02410 742-832, limits assumed, looked up): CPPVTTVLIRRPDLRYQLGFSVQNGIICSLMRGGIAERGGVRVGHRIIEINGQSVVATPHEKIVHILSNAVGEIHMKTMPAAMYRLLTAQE

T9: PDZD2_2, O15018
T9 sequence (O15018 329-429, limits assumed, looked up): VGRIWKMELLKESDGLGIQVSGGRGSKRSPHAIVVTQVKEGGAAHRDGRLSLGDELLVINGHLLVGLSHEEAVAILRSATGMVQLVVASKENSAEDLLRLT

T10: DFNB31_3, Q9P202
T10 sequence (Q9P202 811-907, limits assumed, looked up): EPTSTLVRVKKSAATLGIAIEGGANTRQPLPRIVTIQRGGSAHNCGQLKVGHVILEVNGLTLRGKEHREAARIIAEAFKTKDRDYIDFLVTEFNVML

T11: HTRA3, P83110
T11 sequence (P83110 354-453, limits assumed, looked up): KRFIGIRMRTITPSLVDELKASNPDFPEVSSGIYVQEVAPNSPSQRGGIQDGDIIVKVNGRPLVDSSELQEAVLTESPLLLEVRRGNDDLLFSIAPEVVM

T12: APBA2_1, Q99767
T12 sequence (Q99767 563-664, limits assumed, looked up): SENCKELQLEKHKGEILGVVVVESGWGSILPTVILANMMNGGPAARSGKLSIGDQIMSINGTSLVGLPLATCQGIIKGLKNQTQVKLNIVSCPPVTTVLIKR

T13: GRIP1_3, Q9Y3R0
T13 sequence (Q9Y3R0 247-346, limits assumed, looked up): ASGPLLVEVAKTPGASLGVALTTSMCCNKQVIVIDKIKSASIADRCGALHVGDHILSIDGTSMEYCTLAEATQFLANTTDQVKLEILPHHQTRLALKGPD

T14: DVL3, Q92997
T14 sequence (Q92997 244-331, limits assumed, looked up): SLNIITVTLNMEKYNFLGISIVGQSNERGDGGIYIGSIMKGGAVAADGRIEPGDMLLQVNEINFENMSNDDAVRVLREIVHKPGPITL


Experiments:
Experiment in all cases: holdup assay
Design in all cases: key: below the threshold = too weak to quantify, mostly under pKd 3.1 to 4
Conditions in all cases: plain residues with an end cap or a label only (N-terminal biotin on a linker: ado-ado)
LRRC7, Q96NW7 = molecular target: T1, LRRC7, Q96NW7
NHERF3_3, Q5T2W1 = molecular target: T2, NHERF3_3, Q5T2W1
DLG2_2, Q15700 = molecular target: DLG2_2, Q15700
APBA3_1, O96018 = molecular target: T3, APBA3_1, O96018
NHERF3_4, Q5T2W1 = molecular target: T4, NHERF3_4, Q5T2W1
FRMPD2_3, Q68DX3 = molecular target: FRMPD2_3, Q68DX3
Inadl_5, Q8NI35 = molecular target: Inadl_5, Q8NI35
LNX2_3, Q8N448 = molecular target: T5, LNX2_3, Q8N448
PDZD7_3, Q9H5P4 = molecular target: T6, PDZD7_3, Q9H5P4
Inadl_9, Q8NI35 = molecular target: Inadl_9, Q8NI35
IL16_3, Q14005 = molecular target: IL16_3, Q14005
MAST1, Q9Y2H9 = molecular target: MAST1, Q9Y2H9
TJP3_3, O95049 = molecular target: T7, TJP3_3, O95049
LNX1_1, Q8TBB1 = molecular target: LNX1_1, Q8TBB1
TJP1_3, Q07157 = molecular target: TJP1_3, Q07157
APBA1_2, Q02410 = molecular target: T8, APBA1_2, Q02410
PDZD2_2, O15018 = molecular target: T9, PDZD2_2, O15018
DFNB31_3, Q9P202 = molecular target: T10, DFNB31_3, Q9P202
GIPC2, Q8TF65 = molecular target: GIPC2, Q8TF65
HTRA3, P83110 = molecular target: T11, HTRA3, P83110
APBA2_1, Q99767 = molecular target: T12, APBA2_1, Q99767
GRIP1_3, Q9Y3R0 = molecular target: T13, GRIP1_3, Q9Y3R0
DVL3, Q92997 = molecular target: T14, DVL3, Q92997
GRIP2_7, Q9C0E4 = molecular target: GRIP2_7, Q9C0E4
GRIP2_7, Q9C0E4, sequence (Q9C0E4 934-1023): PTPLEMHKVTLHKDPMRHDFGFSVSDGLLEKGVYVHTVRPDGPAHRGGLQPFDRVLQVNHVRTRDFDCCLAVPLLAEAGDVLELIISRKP

Inadl_5, Q8NI35, sequence (Q8NI35 673-780): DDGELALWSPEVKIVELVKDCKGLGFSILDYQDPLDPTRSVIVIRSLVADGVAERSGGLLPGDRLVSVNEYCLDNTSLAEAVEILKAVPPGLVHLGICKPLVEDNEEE
GIPC2, Q8TF65, sequence (Q8TF65 112-203): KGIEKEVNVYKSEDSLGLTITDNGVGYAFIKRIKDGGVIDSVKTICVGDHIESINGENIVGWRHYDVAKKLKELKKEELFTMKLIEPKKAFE
FRMPD2_3, Q68DX3, sequence (Q68DX3 1073-1166): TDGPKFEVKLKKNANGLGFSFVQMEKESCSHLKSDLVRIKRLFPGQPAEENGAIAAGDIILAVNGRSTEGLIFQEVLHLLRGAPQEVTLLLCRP
Inadl_9, Q8NI35, sequence (Q8NI35 1530-1615): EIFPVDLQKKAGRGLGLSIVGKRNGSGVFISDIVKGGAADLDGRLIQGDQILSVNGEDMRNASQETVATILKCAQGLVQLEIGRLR
DLG2_2, Q15700, sequence (Q15700 189-283): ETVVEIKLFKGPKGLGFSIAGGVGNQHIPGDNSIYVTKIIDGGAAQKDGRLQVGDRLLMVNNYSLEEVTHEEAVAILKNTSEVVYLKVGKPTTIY
MAST1, Q9Y2H9, sequence (Q9Y2H9 962-1065): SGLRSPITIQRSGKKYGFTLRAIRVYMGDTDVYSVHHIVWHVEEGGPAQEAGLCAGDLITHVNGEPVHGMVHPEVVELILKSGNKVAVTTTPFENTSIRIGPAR
TJP1_3, Q07157, sequence (Q07157 416-512): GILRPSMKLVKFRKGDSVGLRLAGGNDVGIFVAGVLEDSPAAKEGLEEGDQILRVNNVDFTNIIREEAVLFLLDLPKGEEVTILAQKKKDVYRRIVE
IL16_3, Q14005, sequence (Q14005 1107-1207): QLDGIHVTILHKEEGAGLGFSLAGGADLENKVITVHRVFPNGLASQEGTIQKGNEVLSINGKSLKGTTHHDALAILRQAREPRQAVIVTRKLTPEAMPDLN
LNX1_1, Q8TBB1, sequence (Q8TBB1 261-371): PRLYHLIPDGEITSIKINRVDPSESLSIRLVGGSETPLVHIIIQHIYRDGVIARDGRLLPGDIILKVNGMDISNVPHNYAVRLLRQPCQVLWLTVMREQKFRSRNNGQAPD

Binder | pKd (LRRC7, Q96NW7) | pKd (NHERF3_3, Q5T2W1) | pKd (DLG2_2, Q15700) | pKd (APBA3_1, O96018) | pKd (NHERF3_4, Q5T2W1) | pKd (FRMPD2_3, Q68DX3) | pKd (Inadl_5, Q8NI35) | pKd (LNX2_3, Q8N448) | pKd (PDZD7_3, Q9H5P4) | pKd (Inadl_9, Q8NI35) | pKd (IL16_3, Q14005) | pKd (MAST1, Q9Y2H9) | pKd (TJP3_3, O95049) | pKd (LNX1_1, Q8TBB1) | pKd (TJP1_3, Q07157) | pKd (APBA1_2, Q02410) | pKd (PDZD2_2, O15018) | pKd (DFNB31_3, Q9P202) | pKd (GIPC2, Q8TF65) | pKd (HTRA3, P83110) | further results
QSLNRMEYIV [JAG1, P78504] | below the threshold | below the threshold | below the threshold | below the threshold | below the threshold | 4.36 | 4.86 | below the threshold | 3.68 | 3.65 | below the threshold | 3.49 | below the threshold | below the threshold | below the threshold | below the threshold | below the threshold | 3.86 | below the threshold | 3.87 | pKd (APBA2_1, Q99767): below the threshold; pKd (GRIP1_3, Q9Y3R0): below the threshold; pKd (DVL3, Q92997): 3.78; pKd (GRIP2_7, Q9C0E4): 4.33
IPLDGETEEL [MYOZ1, Q9NP98] | below the threshold | below the threshold | below the threshold | below the threshold | below the threshold | below the threshold | below the threshold | below the threshold | below the threshold | below the threshold | below the threshold | 4.1 | below the threshold | below the threshold | below the threshold | below the threshold | below the threshold | below the threshold | below the threshold | below the threshold | pKd (APBA2_1, Q99767): below the threshold; pKd (GRIP1_3, Q9Y3R0): below the threshold; pKd (DVL3, Q92997): below the threshold; pKd (GRIP2_7, Q9C0E4): below the threshold
QMNQTLPVQV [EPHB3, P54753] | below the threshold | below the threshold | below the threshold | below the threshold | 3.48 | below the threshold | 4.1 | below the threshold | below the threshold | 4.34 | below the threshold | 3.93 | below the threshold | below the threshold | below the threshold | 4.8 | below the threshold | below the threshold | below the threshold | below the threshold | pKd (APBA2_1, Q99767): below the threshold; pKd (GRIP1_3, Q9Y3R0): below the threshold; pKd (DVL3, Q92997): below the threshold; pKd (GRIP2_7, Q9C0E4): 3.58

More lines, main results first:

pKd (LRRC7, Q96NW7) | pKd (NHERF3_3, Q5T2W1) | pKd (DLG2_2, Q15700) | pKd (APBA3_1, O96018) | pKd (NHERF3_4, Q5T2W1) | pKd (FRMPD2_3, Q68DX3) | pKd (Inadl_5, Q8NI35) | pKd (LNX2_3, Q8N448) | pKd (PDZD7_3, Q9H5P4) | pKd (Inadl_9, Q8NI35) | pKd (IL16_3, Q14005) | pKd (MAST1, Q9Y2H9) | pKd (TJP3_3, O95049) | pKd (LNX1_1, Q8TBB1) | pKd (TJP1_3, Q07157) | pKd (APBA1_2, Q02410) | pKd (PDZD2_2, O15018) | pKd (DFNB31_3, Q9P202) | pKd (GIPC2, Q8TF65) | pKd (HTRA3, P83110) | Binder | further results
below the threshold | below the threshold | below the threshold | below the threshold | 5.45 | below the threshold | below the threshold | below the threshold | 4 | below the threshold | below the threshold | 4.26 | below the threshold | below the threshold | below the threshold | below the threshold | below the threshold | 3.56 | below the threshold | below the threshold | GNSVLKSTQF [SLC22A12, Q96S37] | pKd (APBA2_1, Q99767): below the threshold; pKd (GRIP1_3, Q9Y3R0): below the threshold; pKd (DVL3, Q92997): below the threshold; pKd (GRIP2_7, Q9C0E4): below the threshold
below the threshold | below the threshold | below the threshold | below the threshold | below the threshold | below the threshold | below the threshold | below the threshold | below the threshold | 3.48 | below the threshold | below the threshold | below the threshold | below the threshold | below the threshold | below the threshold | 3.75 | 4.12 | below the threshold | 4 | DDEDRLVIEI [ZNF831, Q5JPB2] | pKd (APBA2_1, Q99767): below the threshold; pKd (GRIP1_3, Q9Y3R0): below the threshold; pKd (DVL3, Q92997): below the threshold; pKd (GRIP2_7, Q9C0E4): below the threshold
4.08 | below the threshold | 4.32 | below the threshold | 3.95 | below the threshold | below the threshold | below the threshold | 4.46 | below the threshold | below the threshold | 5.12 | below the threshold | 3.66 | below the threshold | 3.97 | 3.56 | below the threshold | 3.92 | below the threshold | RHGSCVETSL [TMEM151B, Q8IW70] | pKd (APBA2_1, Q99767): below the threshold; pKd (GRIP1_3, Q9Y3R0): below the threshold; pKd (DVL3, Q92997): below the threshold; pKd (GRIP2_7, Q9C0E4): below the threshold
